According to patent publication US6277976, “Or-1, an orphan receptor belonging to the nuclear receptor family” (Karo Bio AB):

How the values were obtained:
[1] = molecular target: T1, OR-1 (UniProt Q62755 SEQ:1-446); test: EMSA; OR-1 alone; settings: tags: none; TNT reticulocyte lysate; label: 32P
T1 sequence: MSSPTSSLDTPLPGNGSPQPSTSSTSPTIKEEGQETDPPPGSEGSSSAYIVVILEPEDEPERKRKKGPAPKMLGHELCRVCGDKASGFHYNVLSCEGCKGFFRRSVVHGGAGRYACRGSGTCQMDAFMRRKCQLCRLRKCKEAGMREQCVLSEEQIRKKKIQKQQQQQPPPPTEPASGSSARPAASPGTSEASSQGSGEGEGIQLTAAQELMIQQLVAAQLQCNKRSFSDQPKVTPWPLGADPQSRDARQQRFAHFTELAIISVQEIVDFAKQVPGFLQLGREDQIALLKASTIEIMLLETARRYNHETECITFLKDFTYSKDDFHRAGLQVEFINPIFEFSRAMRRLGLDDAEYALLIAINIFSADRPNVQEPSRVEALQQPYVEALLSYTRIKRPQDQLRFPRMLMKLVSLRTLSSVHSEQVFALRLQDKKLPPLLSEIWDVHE
Protocol: (§1) Gel shifts were performed using in vitro-translated OR-1 and RXR with the commercially-available TNT™-coupled reticulocyte lysate system (Promega, Madison USA). Proteins were incubated on ice for 15 min with 4 μg of poly (dI-dC) and with unlabelled competitor DNA where indicated in a solution comprising 100 mM KCl; 10 mM Hepes, pH 7.6; 1 mM dithiothreitol; 1 mM EDTA; 10% (wt./vol) glycerol, before addition of 0.5 ng of a ^32P-end labelled oligonucleotide probe. The reaction mixtures were incubated for a further 10 min at 22° C. before electrophoresis at 200V and 4° C. in pre-run 4% polyacryliamide/0.25 TBE (0.089 m tris-borate pH 8.3, 0.025 EDTA) gels. The following oligonucleotides and their complements were used as probes: DR0 […] (SEQ ID NO:3) DR1 […] (SEQ ID NO:4) DR2 […] (SEQ ID NO:5) DR3 […] (SEQ ID NO:6) DR4 […] (SEQ ID NO:7) DR5 […] (SEQ ID NO:8) DR6 […] (SEQ ID NO:9)

[2] = molecular target: T1, OR-1; test: EMSA; OR-1 alone; settings: tags: none; TNT reticulocyte lysate; label: 32P; remark: listed apart in the source
Protocol: as §1
(§2) The appearance of this complex depends on the presence of RXR and is inhibited by a 10-fold excess of the specific DNA target element, but not by a 100-fold excess of an unrelated DNA element—see FIG. 5B, lane 7)

[3] = molecular target: T2, OR-1/RXR heterodimer (UniProt Q62755;Q05343 Q62755:1-446,Q05343:1-467); test: EMSA; 100 mM KCl, 10 mM Hepes pH 7.6, 1 mM EDTA, 22 C; inhibited by 10-fold excess specific DNA, not by 100-fold unrelated DNA; settings: tags: RXR from pRRXR-T7; label: 32P
T2 sequence 1: T1 sequence
T2 sequence 2: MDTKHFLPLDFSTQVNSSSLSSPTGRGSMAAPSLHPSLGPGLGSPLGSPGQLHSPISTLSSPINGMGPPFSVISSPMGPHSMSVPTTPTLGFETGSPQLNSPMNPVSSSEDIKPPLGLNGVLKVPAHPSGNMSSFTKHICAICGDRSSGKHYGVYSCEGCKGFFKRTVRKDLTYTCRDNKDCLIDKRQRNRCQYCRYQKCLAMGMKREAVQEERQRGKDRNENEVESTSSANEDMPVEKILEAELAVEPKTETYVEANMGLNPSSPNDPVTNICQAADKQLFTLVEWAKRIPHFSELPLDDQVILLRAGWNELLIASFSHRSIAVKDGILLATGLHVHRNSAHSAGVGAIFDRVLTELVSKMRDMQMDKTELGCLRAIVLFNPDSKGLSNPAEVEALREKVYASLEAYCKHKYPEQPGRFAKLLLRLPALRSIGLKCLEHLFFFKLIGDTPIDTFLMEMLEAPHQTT
Protocol: as §1, §2

[4] = molecular target: T3, RXR (RXRalpha) (UniProt Q05343 Q05343:1-467); test: EMSA; RXR alone; settings: tags: none; pRRXR-T7, TNT reticulocyte lysate; label: 32P
T3 sequence: T2 sequence 2
Protocol: as §1, §2

B1: DR6 (dsDNA)
DNA 1: AGTCAGGTCACTCGTTAGGTCAGTCA
DNA 2: TGACTGACCTAACGAGTGACCTGACT
Does B1 bind [1]?
Result: no binding

B2: DR2 (dsDNA)
DNA 1: AGCTTAGGTCACCAGGTCAGTTCA
DNA 2: TGAACTGACCTGGTGACCTAAGCT
Does B2 bind [2]?
Result: no binding

B3: DR3 (dsDNA)
DNA 1: AGTCCAGGTCACTCAGGTCAGTCA
DNA 2: TGACTGACCTGAGTGACCTGGACT
Does B3 bind [1]?
Result: no binding

B4: DR4 (dsDNA)
DNA 1: AGTCAGGTCACTCGAGGTCAGTCA
DNA 2: TGACTGACCTCGAGTGACCTGACT
Does B4 bind [2]?
Result: no binding

Does B4 bind [3]?
Result: binds

Does B4 bind [4]?
Result: no binding

B5: DR5 (dsDNA)
DNA 1: AGTCAGGTCACTCGTAGGTCAGTCA
DNA 2: TGACTGACCTACGAGTGACCTGACT
Does B5 bind [1]?
Result: no binding

B6: DR0 (dsDNA)
DNA 1: AGCTTCAGGTCAAGGTCAGGTTCA
DNA 2: TGAACCTGACCTTGACCTGAAGCT
Does B6 bind [1]?
Result: no binding

B7: DR1 (dsDNA)
DNA 1: AGCTTCAGGTCACAGGTCAGTTCA
DNA 2: TGAACTGACCTGTGACCTGAAGCT
Does B7 bind [1]?
Result: no binding
